The record followed here is article PMC12768534 (Science immunology, 2025).

The test concerns the target mIL-21 (mouse, UniProt Q9ES17 18-146). The test is described as follows: BLI; mIL-21 and 21h10 incubated in PBS or murine serum for 1-240 minutes at 37°C, then binding to mIL-21R. Particulars: both partners purified. (In BLI a coated tip is dipped into the sample, and binding shifts an interference pattern.)

B1: biotinylated mIL-21R (receptor)
chain: not shown
modifications: biotin (biotinylated)
notes: murine IL-21 receptor, biotinylated recombinant protein; Held on streptavidin biosensors by its biotin; limits and tags are the vendor's; also called murine IL-21 receptor; source: bought: Acro Biosystems Cat# ILR-M82E3
Take B1: the binding result is “binds”.
